Test: label from the status in PepcDB records

Sequence | protein production
MAELKSLAKDTAIYGASSIIGKFLNYFLVPIYTFSLPAASGGYGVITKMYAIVALLLVVLTFGMETGFFRFANKGDDDPKKVYSVSLLMVGGVSLLFLLLCLVFLNPIAGLMGYSEHPWYLGMMLIVLAMDAIQAIPFAYLRYKKRPIKFAGLKLLFIFVSILLNILYFVVMKGDDVGVAFLINLICSFVVMLGLIPEFREFRYCPDRLLMKRMLYYSFPILILGVAGIVNQVGDKIIFPFVYPDKVEADVQLGIYSAATKIAMIMAMITQAFRFAYEPFVFGKSKDKDNKRIYAQAMKFFIIFTLLAFLAVMFYLDILRYIIAEDYWEGLRVVPIVMIAEMFMGIYFNLSFWYKLTDDTRWGAYFSIIACLTVVLMNIFLIPVYGYVACAWAGFTGYAIAMLLSYFVGQKKYPIAYDLRGIGCYVGLAIILYLIGEWIPIHNTVLLLAFRTVLLLLFIAYIIKRDLPLSQIPVINRIIKKK | not failed
MGTRWFAKNTTMSKNSIVIGVDLDGVCADFYGRMRQIASEWFERPIDELPEEVSWGLSEWGITNPSQYDSLHRFAVTQRELFSSMEAIPGARKYLRQLSDEGFRIRIITHRLFIHYFHATAVQQTVNWLDSHGIPYWDLCFVKEKTQVGADIYIEDSPENVAQLRGRGLFTICFGNSTNRHIEELRAASWQDVYDMIKAFVT | failed
MKTIRLWDLPTRLFHWLLVIAVVGAVATVKLGAGWMAWHERFGLAVVGLLAFRVVWGLVGSTYARFSQFISGPGAMIRYLRGQWQGAGHNPLGAWSVLLLLGLFGFQAVTGLFANDEIAFNGPLYRLVSSGWSDTLSSWHRLMEWGLYAVVALHVLAVLFYTHVRKDNLIKPMVTGRKQVQSSELKDASGGGWLAMIIALAIAVAVVWAASGGLIPPPPPPPQNLGW | failed
MKIALINENSQASKNHIIYDSLKEATDKKGYQLFNYGMRGEEGESQLTYVQNGLMAAILLNTKAVDFVVTGCGTGVGAMLALNSFPGVVCGLAVDPTDAYLYSQINGGNALSIPYAKGFGWGAELTLKLMFERLFAEEMGGGYPRERVIPEQRNARILNEVKQITHNDLMTILKIIDQDFLKDTISGKYFQEYFFENCQDDEVAAYLKEVLAK | not failed
MGCGLRKLEDPDESSPGKIFSTLKRPQVETKTEFAYEYALLDFTLQASTNPDVIKINSVLDIVAKVEDYYLKGYVVGAIHPVIQPVGQRKHLPASHLYRAVLSRLKLSPKHSAAGGQRRARLVMEECPLTCEAQANDAAKELMDKINAAAKRGMKFVGLVSQCYLPSMHCNGASHDGVAESGLHVRQDSQDNCKGWNEGALGGHLSESGVEEEPQHESGQHQTERNSSPSYANPKRGEAPDGKLYMVFNAFEEDAASWAYQEGVLSMKVTRKGAVISALDANWLELTTFYYKQGFSLIDSFVCWETPKVAKLEAFQLSVSDKLPKGKQKYSFQSLSGIPASGLA | not failed
MESLIGLVNRIQRACTVLGDYGGGTGSNAFNSLWEALPTVAVVGGQSSGKSSVLESIVGRDFLPRGSGIVTRRPLVLQLHKTDDGTEEYAEFLHLPKKQFTDFALVRREIQDETDRITGKNKQISPVPIHLSIYSPNVVNLTLIDLPGLTKVAVEGQPETIAEDIESMVRTYVDKPNCIILAISPANQDIATSDAIKLAKDVDPTGERTFGVLTKLDLMDKGTNALEVLEGRSYRLQHPWVGIVNRSQADINKNVDMMLARRKEREYFDTSPDYGHLASKMGSEYLAKLLSKHLESVIRTRIPSILSLINKSIEELERELDRMGRPVAVDAGAQLYTILEMCRAFDKIFKEHLDGGRPGGDRIYGVFDNQLPAALKKLPFDRHLSLQSVKKIVSEADGYQPHLIAPEQGYRRLIEGALGYFRGPAEASVDAVHYVLKELVRKSISETEELKRFPSLQVELAAAANSSLEKFREESKKSVIRLVDMESAYLTAEFFRKLPQEIERPVTNSKNQTASPSSATLDQYGDGHFRRIASNVSAYVNMVSDTLRNTIPKACVYCQVRQAKLALLNYFYSQISKREGKQLGQLLDEDPALMDRRLECAKRLELYKKARDEIDAVAWVR | failed
MKDFIRYTKKRNLSLNTIRTYESVLKHYEPVLDSWIKIRNKIINSNFKPRTIHLHKNVLLSFFEFKKLKRYLQNLKLLKLPQIEMKYFDVISKNNLYKKTDILDDDSLEIKKYKTIIRFLFETGIRAHELFFLESINNRLYVLGKGNKKRQIFFVKQTFEQLQKFYENLKGFETTKTLRLYIKKIIGKNFTPHSLRRSFATFMLIKGANPKTVMLQMGHANIQTTFSYLNLNEQTNRRIYNKIMYQNDAE | failed
MKNITKLSTVALSLLLCTACAASNTSTSKTQSHHPKQTKLTDKQKEEPKNKEAADQEMHPQGAVDLTKYKAKPVKDYGKKIDVGDGKKMNIYETGQGKIPIVFIPGQAEISPRYAYKNLIERLSKKYKIYTVEPLGYGLSDIPTKPRTLENITKEIHTGLNKIGVKNFYLAAHSLGGMYSLNYAKNYPEEVRGFIGMDTSTPWMEGEQKTKYDPESAKWAMKLPDVDDKTNEQYLSIAKKINGNKSQRDEDERLGDNLGKLKNVKFPKGMPTKYFLADQSVEGIKLRQADFKGLKNWDQQHIDLSEDPKDASVEIFKGSHNIFQTQYEHMAKAIDGFIQSHQK | failed
VARCQVPDCEADISELKGYHKRHRVCLRCATASFVVLDGENKRYCQQCGKFHLLPDFDEGKRSCRRKLERHNNRRKRKPVDKGGVA | not failed
MSMYNMDLDKVIRKINKKGARTVGLQFPEGLKMQAVKIAKAIESQTPATVIISGDPCFGACDVSDYKMKGSVDLIVHYGHTPLPLKYEVPTLFIEAFSNIDVKKDLEKCLEKLEDYSKIALVTTTQHLHLLNEIKDYLEDNGKEVVLGSSKNTKKGQVLGCNFSSIKNLDAEVYLFIGSGNFHPLGIYLFTKSPVLALDPYNSEIRDISAFADRILRIRFARITKAREAEKWGIIVSSKEGQYRMKLAKEIKKILEDNKMEAYIIMADNINPDILLPYMELDAFVVSACPRIAIDDSQMYKKPLLTPQELEIVLNKRQWENYQLDEILFHERYK | failed
MKNRAWLYVILTCIFEIFWVFGFNTANTWWHWIIILGVIAVDFHFLSKACEHLATGTVYAVFAGAGTVGTFLMDVFLFGGSFSVGKLFFIVMVVAGVIGLKLADNKEETVEGAA | failed
MSLSNHSSDIEVGHSMNLTNHFLVAMPSMKDPYFKRSVIYICEHNQDGAMGLMINAPIDITVGGMLKQVDIEPAYPQSHQENLKKPVFNGGPVSEDRGFILHRPRDHYESSMKMTDDIAVTTSKDILTVLGTEAEPEGYIVALGYSGWSAGQLEVELTENSWLTIEADPELIFNTPVHEKWQKAIQKLGISPAQLSSDAGHEGGSHHHHHH | not failed
MLCTYHAGQWFNNLLNFIDFIRLQFGKTANVLNLNDCLHIWLFSLEVRSLRDVVKMKLILSIMILSGCLLFILAGCARKNDYMPPAGATGEKIFKGACVQCHTPVNGKVMILRSEMANKEAIIERVTNGKGFGMPAFPNLTGDSVQNLAEYVLENSVTR | failed
MKNLEKCILCGSHNIVPHWKNVRSYNVSKCLDCSFLFLHEIIDDHELENYYSQSYFMASYAKTENNLIDAANNPKITAEAKEYANLIKLHHPEAHNVGEIGCSWGYLLYNLQNFGYSAKGFELSKTTAEMGSKQLGINITSGFFETQYNQFDVLILRHVLEHVPDPQDLLEKIYDSIKKDGLFILEGPNLDSISSRLFGKNVSWVSPPDHISFPNFISLIMACEKLGFTCIHKSSRRGRGISIFHQALLNSVGLMFGGKEKAKVNLGGINEKPNNQQLSSLKSAALKIVDFLDFLSSPMQPFLKQALLEEEMLIIFKKLEHHHHHH | failed
MLRQGAKHTACTGRRNDDDRTPKEQSMKIVVIGGTGLIGSNVVNRLRRDGHETVAASPGTGVNTITGEGLAQALDGAQVVVDVANSPSFEDQAVMAFFETSGRTLLAAEAAAGVTHHLALSVVGTDRLADSGYFRAKVAQEALIKASKVPYTILRATQFFEFIESIVNAGADGDTVRLSPALIQPIAADDVSAALADLAVGMPLNGTVEVAGPDRLPLDELARKFLAARGDRRQVVADVHARYFGSELDDRSLVAGDNPRVGSTRLMNWLSRSPAPQ | failed
MAEPRENLMDWLRDAHAMEQQAEQMLKAQAARIEHYPKLKARIEQHLEETLGQQRLVEASIERLGGSPSVVKDAMGKMAAFGQAMGGMTTSDEIVKGAMASYVFENLEIATYTALLGAAKTVGDVETQRMCEQILPQEEAMAKWLLEHLPELTEEFLVRDATPGVTAKK | failed
MNSPTSRPLRRDPLHNALVTTNVLVVLDQLEVAAEPTRRRLVQLLTSGEQTVNNLAAHFPASRSAISQHLRVLTEAGLVTPRKDGRFRYYRLDPQGLAQLRALFDSFWIDELDRLVADATEEAASKGDS | not failed
MKDFFPLQQGGLVLEWVNTETKLRQLWAFRHRIFREQLQWVPLCEDGFDRDAYDDFSDNLVLCRDGEVVGAIRLTTGEHPFMLEEEFSRLLAPGERIGKGAEYSEITRLAVDREALGARESIMAARLLYLGAWLWSQVQGVRWMYFVVEPVFYRRLVMMGFPIVPVGIPRPLDGGVMSMTGLLDWRQAKTELIRSLTRGVSSPSACQALWHEYDYSH | failed
MSLEARVLTGAALEARLDEVARLRIAVFRDWPYLYEGSMDYERSYLSTYRTSPGAILVGAFDGDRLVGASTGTPMEDHAEDFAAAFARTGLPLDEIFYCAESVLLPDYRGHGMGHRFFDLREAHARALGRRHSAFCSVIRPEDHPLRPAAARSNEPFWRKRGYAPLPGVVAHYGWTDVGEERETQKPLQFWIRDL | not failed
MRTFTWRKGSLSKVNTCYVLAGGKSKRFGEDKLLYEIKGKKVIERVYETAKSVFKEVYIVAKDREKFSFLNAPVVLDEFEESASIIGLYTALKHAKEENVFVLSGDLPLMKKETVLYVLENFKEPVSVAKTEKLHTLVGVYSKKLLEKIEERIKKGDYRIWALLKDVGYNEVEIPEELRYTLLNMNTKEDLKRILAIENHY | not failed
AALVRQHLDALPAASVPDLPAMARLLCTSVRTLKRRLQEEGTCYRQVLAGHRGARALELLGNPRLSLSQVAERLGFSDLSSFSQSFKRWFGVAPSVYRQERCG | failed
LLADGQLQDWHDSTVYEIYHHWRHRYPKGVFENREHLFSAEIPRDTPIALQPEEHVSYGWFDMEEAAEKVFSPSNRRAILELGRFLGKR | failed
MGSSHHHHHHSSGRENLYFQGMNIGRLRDRITIQTLKQTRDITGEILETWEDGHTLWASVNMVSSKEAISSGAELAIGTVRIWIRYRKDINATSRIKVSTGPLAGRVLNIIGQPLPDAARTRLEILCREGAEK | not failed
MAAGFSSKTTRDSPHLSEIRVVLLGNNDCDRRRVVRSVLGDLTGESVGQCTVYDGEESRRRIRVVDAPGWNSNTPQSKLRESIERSAMLCAPGPHALLLVLPVRRNEDMSAGDIKSGMKLVEMLSERAWRHTIVVFACDEGTGGFSCSQKAKIVLEKCKGRGFYLQRQGGIAQLFTQIEDLVRDNGEDDVFLPQAYHELFRRKTEGLLHRRGNLRKKPVHLSKSEAGALGVEPFSVIVIAVLAAVLVSLSFGAEYGVFGGCAGLLLGSILPF | failed

Source: a protein production outcome set (Wang et al. 2014)
